Reference: patent US20250222128A1 (Zymeworks, published 2025)

Experiments:
[1] = molecular target: T1, c-Met (hepatocyte growth factor receptor, HGFR), endogenous on tumour cell lines (UniProt P08581 25-1390, limits assumed); test: apparent Kd, flow cytometry on H292 cells (endogenous cMet)
T1 construct: whole, on cells
Description: (§1) Briefly, cells were seeded at 50,000 cells/well in V-bottom 96-well plates and treated with antibody for 24 hours at 4° C. to prevent internalization. Following incubation, cells were washed and stained with anti-human IgG Fc AF647 conjugate (Jackson ImmunoResearch Laboratories, Inc., West Grove, PA; Cat. No. 109-605-098) at 4° C. for 30 min. Following incubation and washing, fluorescence was detected by flow cytometry on a BD LSRFortessa™ Cell Analyzer (BD Biosciences, Franklin Lake, NJ) with 1,000 minimum events collected per well. AF647/APC-A GeoMean (fluorescence signal geometric mean, proportional to anti-Human AF647 binding) in live cell population was plotted using GraphPad Prism Version 8 (GraphPad Software, San Diego, CA).

[2] = molecular target: T1, c-Met (hepatocyte growth factor …); test: as above; remark: listed apart in the source
Description: as §1
(§2) Cellular binding was determined as described in Example 10.

[3] = molecular target: T1, c-Met (hepatocyte growth factor …); test: flow cytometry on H292 cells (endogenous cMet), 24 h at 4 C, anti-human IgG Fc AF647
Description: as §1

[4] = molecular target: T1, c-Met (hepatocyte growth factor …); test: apparent Kd, flow cytometry on SNU-5 cells (endogenous cMet)
Description: as §1, §2

[5] = molecular target: T1, c-Met (hepatocyte growth factor …); test: flow cytometry on SNU-5 cells (endogenous cMet), as in Example 10
Description: as §1, §2

[6] = molecular target: T1, c-Met (hepatocyte growth factor …); test: flow cytometry on H292 cells (endogenous cMet), as in Example 10
Description: as §1, §2

[7] = molecular target: T1, c-Met (hepatocyte growth factor …); test: apparent Kd, flow cytometry on SNU-5 cells (endogenous cMet); remark: listed apart in the source
Description: as §1

[8] = molecular target: T1, c-Met (hepatocyte growth factor …); test: flow cytometry on SNU-5 cells (endogenous cMet), 24 h at 4 C, anti-human IgG Fc AF647
Description: as §1

T1 sequence (P08581 25-1390 limits assumed): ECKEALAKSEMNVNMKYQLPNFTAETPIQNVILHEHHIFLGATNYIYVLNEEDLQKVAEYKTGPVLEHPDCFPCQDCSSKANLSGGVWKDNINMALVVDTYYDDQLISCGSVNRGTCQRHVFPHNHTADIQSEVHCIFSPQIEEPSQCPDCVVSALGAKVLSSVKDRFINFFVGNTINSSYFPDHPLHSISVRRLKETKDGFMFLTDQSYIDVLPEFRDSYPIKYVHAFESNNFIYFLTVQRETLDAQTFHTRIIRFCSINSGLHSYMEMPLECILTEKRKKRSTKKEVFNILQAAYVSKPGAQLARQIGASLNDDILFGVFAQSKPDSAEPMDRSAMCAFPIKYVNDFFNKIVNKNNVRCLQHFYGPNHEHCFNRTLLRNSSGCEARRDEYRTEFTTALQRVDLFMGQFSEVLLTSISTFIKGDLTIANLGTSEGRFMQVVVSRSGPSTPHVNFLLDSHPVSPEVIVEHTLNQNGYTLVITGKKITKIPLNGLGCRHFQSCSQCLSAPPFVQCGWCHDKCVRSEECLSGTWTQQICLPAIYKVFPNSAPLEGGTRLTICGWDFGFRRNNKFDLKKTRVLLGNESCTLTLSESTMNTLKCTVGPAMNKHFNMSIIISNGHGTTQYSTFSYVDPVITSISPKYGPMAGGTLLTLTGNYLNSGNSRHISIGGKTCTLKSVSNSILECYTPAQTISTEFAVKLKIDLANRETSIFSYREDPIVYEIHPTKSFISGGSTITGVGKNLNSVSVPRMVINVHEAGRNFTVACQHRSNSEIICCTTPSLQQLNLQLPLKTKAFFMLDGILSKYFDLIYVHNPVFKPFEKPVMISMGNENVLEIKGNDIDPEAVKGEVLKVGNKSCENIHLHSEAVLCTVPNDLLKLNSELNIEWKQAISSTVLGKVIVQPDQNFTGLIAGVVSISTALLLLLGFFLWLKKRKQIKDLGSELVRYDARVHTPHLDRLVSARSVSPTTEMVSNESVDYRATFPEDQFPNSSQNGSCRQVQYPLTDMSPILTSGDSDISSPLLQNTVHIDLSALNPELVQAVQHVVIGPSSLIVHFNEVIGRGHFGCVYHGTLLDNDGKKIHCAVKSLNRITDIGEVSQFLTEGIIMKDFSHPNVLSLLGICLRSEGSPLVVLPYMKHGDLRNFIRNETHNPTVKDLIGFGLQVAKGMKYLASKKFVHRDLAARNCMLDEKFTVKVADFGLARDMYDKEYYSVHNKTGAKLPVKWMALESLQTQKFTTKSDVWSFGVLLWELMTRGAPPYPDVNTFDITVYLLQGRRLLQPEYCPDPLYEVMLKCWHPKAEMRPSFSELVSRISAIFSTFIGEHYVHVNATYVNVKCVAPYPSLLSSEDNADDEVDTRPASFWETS

Binder | Kd [1] [nM] | Kd [2] [nM] | Bmax [3] | Kd [4] [nM] | Bmax [5] | Bmax [6] | Kd [7] [nM] | Bmax [8]
v17427 (telisotuzumab paratope, HetFc, unmodified hinge, full-size IgG1 antibody) (antibody, also called variant v17427; unconjugated HetFc variant) heavy 1: QVQLVQSGAEVKKPGASVKVSCKASGYIFTAYTMHWVRQAPGQGLEWMGWIKPNNGLANYAQKFQGRVTMTRDTSISTAYMELSRLRSDDTAVYYCARSEITTEFDYWGQGTLVTVSSASTKGPSVFPLAPSSKSTSGGTAALGCLVKDYFPEPVTVSWNSGALTSGVHTFPAVLQSSGLYSLSSVVTVPSSSLGTQTYICNVNHKPSNTKVDKKVEPKSCDKTHTCPPCPAPELLGGPSVFLFPPKPKDTLMISRTPEVTCVVVDVSHEDPEVKFNWYVDGVEVHNAKTKPREEQYNSTYRVVSVLTVLHQDWLNGKEYKCKVSNKALPAPIEKTISKAKGQPREPQVYVYPPSRDELTKNQVSLTCLVKGFYPSDIAVEWESNGQPENNYKTTPPVLDSDGSFALVSKLTVDKSRWQQGNVFSCSVMHEALHNHYTQKSLSLSPG heavy 2: not shown light: not shown | 0.03 | 0.026 | 2120 AF647 GeoMean fluorescence | 0.328 | 34800 AF647 GeoMean fluorescence | 2120 AF647 GeoMean fluorescence | 0.33 | 34800 AF647 GeoMean fluorescence
v17427-Drug-Linker 002 DAR 4 (antibody, Drug-Linker 002 stochastically conjugated to lysine residues of the antibody, about DAR 4; Drug-Linker 002 (auristatin analogue Compound 1) stochastically conjugated to lysine residues of the antibody, about DAR 4, Antibody-drug conjugate of v17427) heavy 1: QVQLVQSGAEVKKPGASVKVSCKASGYIFTAYTMHWVRQAPGQGLEWMGWIKPNNGLANYAQKFQGRVTMTRDTSISTAYMELSRLRSDDTAVYYCARSEITTEFDYWGQGTLVTVSSASTKGPSVFPLAPSSKSTSGGTAALGCLVKDYFPEPVTVSWNSGALTSGVHTFPAVLQSSGLYSLSSVVTVPSSSLGTQTYICNVNHKPSNTKVDKKVEPKSCDKTHTCPPCPAPELLGGPSVFLFPPKPKDTLMISRTPEVTCVVVDVSHEDPEVKFNWYVDGVEVHNAKTKPREEQYNSTYRVVSVLTVLHQDWLNGKEYKCKVSNKALPAPIEKTISKAKGQPREPQVYVYPPSRDELTKNQVSLTCLVKGFYPSDIAVEWESNGQPENNYKTTPPVLDSDGSFALVSKLTVDKSRWQQGNVFSCSVMHEALHNHYTQKSLSLSPG heavy 2: not shown light: not shown | 0.04 | 0.04 | 2120 AF647 GeoMean fluorescence | 0.428 | 34100 AF647 GeoMean fluorescence | 2120 AF647 GeoMean fluorescence | 0.43 | 34100 AF647 GeoMean fluorescence
v17427-Drug-Linker 002 DAR 6 (antibody, Drug-Linker 002 stochastically conjugated to lysine residues of the antibody, about DAR 6; Drug-Linker 002 (auristatin analogue Compound 1) stochastically conjugated to lysine residues of the antibody, about DAR 6, Antibody-drug conjugate of v17427) heavy 1: QVQLVQSGAEVKKPGASVKVSCKASGYIFTAYTMHWVRQAPGQGLEWMGWIKPNNGLANYAQKFQGRVTMTRDTSISTAYMELSRLRSDDTAVYYCARSEITTEFDYWGQGTLVTVSSASTKGPSVFPLAPSSKSTSGGTAALGCLVKDYFPEPVTVSWNSGALTSGVHTFPAVLQSSGLYSLSSVVTVPSSSLGTQTYICNVNHKPSNTKVDKKVEPKSCDKTHTCPPCPAPELLGGPSVFLFPPKPKDTLMISRTPEVTCVVVDVSHEDPEVKFNWYVDGVEVHNAKTKPREEQYNSTYRVVSVLTVLHQDWLNGKEYKCKVSNKALPAPIEKTISKAKGQPREPQVYVYPPSRDELTKNQVSLTCLVKGFYPSDIAVEWESNGQPENNYKTTPPVLDSDGSFALVSKLTVDKSRWQQGNVFSCSVMHEALHNHYTQKSLSLSPG heavy 2: not shown light: not shown | 0.05 | 0.047 | 2150 AF647 GeoMean fluorescence | 0.435 | 33500 AF647 GeoMean fluorescence | 2150 AF647 GeoMean fluorescence | 0.43 | 33500 AF647 GeoMean fluorescence
